# Literature values in patent US20090068143A1, “ORALLY EFFECTIVE C[…]” (priority 2005, published 2009).
# B1: IFN-β-1b: beta interferon product to which patients develop NAbs (protein, UniProt P01574 22-187, looked up, variant C17S)
# Interferon beta: MSYNLLGFLQRSSNFQSQKLLWQLNGRLEYCLKDRMNFDIPEEIKQLQQFQKEDAALTIYEMLQNIFAIFRQDSSSTGWNETIVENLLANVYHQINHLKTVLEEKLEKEDFTRGKLMSSLHLKRYYGRILHYLKAKEYSHCAWTIVRVEILRNFYFINRLTGYLRN
# Settings: in vivo; cited from earlier work
molecule,measurement,value
B1,patients developing neutralizing antibodies (NAbs),Twenty-eight to forty-seven
